For this assay, the target named is HLA-A*02:01 (human). As to the kind of experiment: UV-exchange b2m ELISA; exchange-yield grade. Conditions: remark: other sources report otherwise. On the technique in general: An ELISA detects its analyte on a solid surface through an enzyme-linked reagent.

The record followed here is patent US20180222961A1.

SVFAHPRKL […] registered a peptide exchange yield of 50 to 75%.
